Test system: T1, Tkip (tyrosine kinase inhibitor peptide), WLVFFVIFYFFR
T1 sequence: WLVFFVIFYFFR

In the case of recombinant human Src, the “c-src tyrosine phosphorylation of a synthetic substrate peptide, in vitro kinase assay” value is reported as “Tkip at 50 µM failed to inhibit c-src phosphorylation of a protein substrate”.

From patent publication US20040265963
